Drawing on the RNAGym collection of RNA variant scans (doi:10.7554/elife.80360), this text covers self-cleavage for 167 variants.

B1: HDV Ribozyme (parent)
chain: GGCCGGCAUGGUCCCAGCCUCCUCGCUGGCGCCGGCUGGGCAACAUUCCGAGGGGACCGUCCCCUCGGUAAUGGCGAAUGGGACCCA

The variants in the data set derive from B1. In words: self-cleavage, relative activity (ratio to wild type); higher = more cleavage; co-transcriptional.
G6A C36A: the self-cleavage was 0.

As for G6A C36G, the self-cleavage was determined as 0.0811.

As for G6A C36U, the self-cleavage came to 0.286.

In the case of G6U A51G, the self-cleavage was found to be 0.475.

In the case of G6U A51C, the self-cleavage turned out to be 0.656.

Consider G6A C21U, for which the self-cleavage was determined as 0.0665.

On to G6A C21G, for which the self-cleavage is 0.203.

G6A U65A: the self-cleavage amounted to 0.54.

Take G6A U65G: the self-cleavage was determined as 0.506.

With G6A C13A, the self-cleavage was determined as 0.185.

In the case of G5U U79C, the self-cleavage stood at 0.123.

G5U U79A: the self-cleavage came out at 0.104.

For G6A C33G, the self-cleavage amounted to 0.0536.

Take G6A C64U: the self-cleavage worked out at 0.739.

Regarding G5U C84U, the self-cleavage was found to be 0.219.

On to G6C C86U, for which the self-cleavage was determined as 0.403.

With G6C G53A, the self-cleavage was found to be 0.233.

G6C U20C: the self-cleavage turned out to be 0.0923.

In the case of G6C U20G, the self-cleavage was 0.0978.

For the variant G6C A8U, the self-cleavage was found to be 0.346.

Regarding G6A G17U, the self-cleavage worked out at 0.0773.

Regarding G6C G25A, the self-cleavage was 0.0898.

With G6C G25C, the self-cleavage stood at 0.

Regarding G5U G68U, the self-cleavage was determined as 0.268.

As for G5U G68A, the self-cleavage was determined as 0.697.

Turning to G5U G40C, the self-cleavage was found to be 0.115.

Regarding G5U G40U, the self-cleavage was 0.155.

In the case of G5U G40A, the self-cleavage stood at 0.364.

For G5U G11C, the self-cleavage was found to be 0.

With G6A G29A, the self-cleavage turned out to be 0.0959.

For the variant G6U A78U, the self-cleavage came out at 0.107.

G6C A43C: the self-cleavage was found to be 0.0519.

For G6A C22U, the self-cleavage was found to be 0.4.

Consider G6A C22A, for which the self-cleavage came out at 0.208.

In the case of G5U U9A, the self-cleavage was found to be 0.578.

As for G6C G40C, the self-cleavage stood at 0.175.

As to G6C G40U, the self-cleavage turned out to be 0.0536.

As to G6A C44A, the self-cleavage was 0.201.

In the case of G6A C44U, the self-cleavage is 0.457.

As to G6C U60A, the self-cleavage was 0.231.

On to G5U G81A, for which the self-cleavage was 0.147.

Regarding G5U G81C, the self-cleavage came out at 0.

As for G6C G29A, the self-cleavage was determined as 0.

G6C G29C: the self-cleavage worked out at 0.161.

As to G5U C86U, the self-cleavage came to 0.554.

On to G5U C86A, for which the self-cleavage was found to be 0.755.

Take G5U G29C: the self-cleavage was 0.

For the variant G6C A56U, the self-cleavage was 0.214.

Regarding G6C A56G, the self-cleavage was 0.453.

For G6C G73A, the self-cleavage was 0.0723.

On to G6C G73C, for which the self-cleavage is 0.

Consider G5U C49G, for which the self-cleavage is 0.0831.

In the case of G6C C41G, the self-cleavage came to 0.

With G6C C41A, the self-cleavage was 0.

As to G6C C41U, the self-cleavage is 0.

G5U G80C: the self-cleavage is 0.0811.

For the variant G6C G80C, the self-cleavage turned out to be 0.172.

As for G6C G80A, the self-cleavage stood at 0.0665.

G5U C61U: the self-cleavage was determined as 0.399.

As to G6A A51C, the self-cleavage came out at 0.522.

Consider G6A A51G, for which the self-cleavage amounted to 0.517.

As for G6A C14A, the self-cleavage was 0.237.

Turning to G6A C14G, the self-cleavage was 0.287.

Consider G6U A77G, for which the self-cleavage stood at 0.302.

For the variant G6U A77U, the self-cleavage was found to be 0.158.

For the variant G6A G54C, the self-cleavage turned out to be 0.672.

Consider G5U U65G, for which the self-cleavage came to 0.475.

On to G6C G81C, for which the self-cleavage is 0.185.

For the variant G6C G81A, the self-cleavage was found to be 0.0811.

Take G6C G81U: the self-cleavage was found to be 0.0615.

G6A G73A: the self-cleavage was 0.256.

On to G6A A77U, for which the self-cleavage is 0.18.

Turning to G6A A77G, the self-cleavage was found to be 0.277.

Take G5U G31U: the self-cleavage stood at 0.277.

Turning to G5U G31C, the self-cleavage amounted to 0.0723.

Consider G5U G31A, for which the self-cleavage came to 0.135.

In the case of G6A C62G, the self-cleavage worked out at 0.441.

In the case of G6A C62U, the self-cleavage was 0.728.

On to G6C U23G, for which the self-cleavage was determined as 0.

As to G6C U23A, the self-cleavage was 0.0615.

With G6C U23C, the self-cleavage was 0.0639.

As to G6A U79G, the self-cleavage came out at 0.227.

As for G6A C18A, the self-cleavage was 0.

G6A C18G: the self-cleavage came out at 0.115.

As for G6A C18U, the self-cleavage amounted to 0.148.

As to G6C G50A, the self-cleavage came to 0.225.

As for G6C G50U, the self-cleavage came to 0.17.

For the variant G6A U20C, the self-cleavage was 0.158.

In the case of G6A U20A, the self-cleavage is 0.0536.

For G6C U79C, the self-cleavage worked out at 0.0405.

For the variant G6C C13A, the self-cleavage stood at 0.

Take G6C C13U: the self-cleavage is 0.0831.

G6C C13G: the self-cleavage came to 0.151.

As to G5U U23G, the self-cleavage is 0.

As to G5U U23A, the self-cleavage is 0.578.

G6C G28A: the self-cleavage amounted to 0.0545.

As for G6C G28U, the self-cleavage came out at 0.

Take G5U G74U: the self-cleavage is 0.

For G6A G25A, the self-cleavage came to 0.121.

For the variant G6A G25C, the self-cleavage is 0.0462.

For the variant G6A G25U, the self-cleavage is 0.089.

With G6C G52U, the self-cleavage worked out at 0.237.

Regarding G6C G52A, the self-cleavage came out at 0.369.

For the variant G6A C58G, the self-cleavage is 0.68.

G6A C58U: the self-cleavage was 0.702.

G6A U12C: the self-cleavage worked out at 0.277.

For G6A U9G, the self-cleavage was 0.653.

For G6A U9C, the self-cleavage amounted to 0.795.

Regarding G6C G59C, the self-cleavage was 0.277.

For G6C G59A, the self-cleavage worked out at 0.492.

For G6A C19G, the self-cleavage came to 0.

G6C G67A: the self-cleavage came out at 0.35.

Take G6C G67U: the self-cleavage is 0.268.

G6C G67C: the self-cleavage came out at 0.192.

On to G6C U12G, for which the self-cleavage came out at 0.

G6C U12C: the self-cleavage turned out to be 0.123.

G5U U46C: the self-cleavage was 0.

For the variant G5U U46G, the self-cleavage was determined as 0.

For G6A U69G, the self-cleavage was 0.689.

In the case of G6A C49U, the self-cleavage was 0.58.

Turning to G6A C49A, the self-cleavage was determined as 0.566.

In the case of G6A C49G, the self-cleavage was 0.222.

Consider G6A G55C, for which the self-cleavage was found to be 0.791.

Consider G6A G35U, for which the self-cleavage turned out to be 0.148.

Take G6U A71C: the self-cleavage came to 0.123.

Consider G6U A71G, for which the self-cleavage is 0.399.

Consider G6A G50A, for which the self-cleavage was 0.785.

Take G5U G55A: the self-cleavage was 0.467.

Take G6A C86A: the self-cleavage was determined as 0.536.

Take G6A G80A: the self-cleavage is 0.147.

Turning to G6A G80U, the self-cleavage is 0.0813.

Take G6C A77U: the self-cleavage is 0.145.

As for G6C C15A, the self-cleavage was 0.

For the variant G6C C15U, the self-cleavage turned out to be 0.138.

With G6C C18G, the self-cleavage was found to be 0.

For G5U C62U, the self-cleavage was found to be 0.467.

Turning to G5U C62A, the self-cleavage was determined as 0.369.

Consider G6A C75A, for which the self-cleavage is 0.17.

Regarding G6A C75G, the self-cleavage was determined as 0.0369.

With G6A C75U, the self-cleavage was 0.193.

In the case of G6A G38U, the self-cleavage was 0.0923.

Turning to G6C C33G, the self-cleavage was found to be 0.185.

G6C C33A: the self-cleavage was 0.172.

For G5U G67U, the self-cleavage worked out at 0.364.

Regarding G5U G67A, the self-cleavage was determined as 0.32.

G5U G67C: the self-cleavage was determined as 0.582.

As to G6A C30A, the self-cleavage was 0.0421.

For the variant G6A C30U, the self-cleavage came to 0.432.

In the case of G5U C58A, the self-cleavage is 0.277.

Take G6C G10U: the self-cleavage is 0.0755.

In the case of G6C G10A, the self-cleavage worked out at 0.147.

In the case of G6C G68C, the self-cleavage is 0.364.

Take G5U G82C: the self-cleavage was found to be 0.

G6U A43U: the self-cleavage was determined as 0.212.

On to G6U A43C, for which the self-cleavage amounted to 0.0489.

Turning to G6U A43G, the self-cleavage amounted to 0.0665.

As for G6C C64G, the self-cleavage came to 0.344.

Turning to G6C C64A, the self-cleavage stood at 0.594.

Turning to G6C C64U, the self-cleavage stood at 0.244.

As for G6A U46G, the self-cleavage turned out to be 0.229.

As for G6C C30U, the self-cleavage is 0.0723.

As for G6C C30G, the self-cleavage amounted to 0.0615.

As for G6C G54U, the self-cleavage is 0.231.

Take G6A C15A: the self-cleavage came to 0.375.

Turning to G6A C15U, the self-cleavage is 0.431.

Turning to G5U C75A, the self-cleavage came out at 0.101.

Turning to G5U C75G, the self-cleavage was 0.246.
